Experimental data published in patent US5536822A, “γ-phosphate linked adenosine 5' triphosphate sepharose” (University of Virginia Alumni Patents Foundation, priority 1994, dated 1996).

Substrate: Nc1ncnc2c1ncn2[C@@H]1O[C@H](COP(=O)(O)OP(=O)(O)OP(=O)(O)O)[C@@H](O)[C@H]1O
Assay: Inhibition constant of the ATP derivative / Km for ATP, p42^mapk assay
Assay type: biochemical
Details: other: p42^mapk; pH 7.4
Text: [γ-^32 P] ATP was synthesized according to the procedure set forth in Johnson et al., Advances in Cyclic Nucleotide Research, 10:135-167 (1979). The catalytic subunit of cyclic-AMP-dependent protein kinase was purchased from Promega. p60^c-arc was obtained from the Department of Microbiology, University of Virginia. Recombinant p42^mapk was purified as described in Haystead et al., (1992) FEBS Lett., 306:17-22. STE7 antibody was obtained from the University of Vancouver, Canada.
The 42-kDa MAP kinase (p42^mapk) and MAPKK were assayed as described previously (Haystead et al. (1992) FEBS. Lett., 306:17-22). The cyclic-A kinase assays (30 μl) included 1 μg cyclic-A kinase, 2 mM Kemptide, 50 mM Hepes, pH 7.4, 1 mM dithiothreitol, 200 μM ATP, 5 mM MgCl2. […]
In order to assess the effectiveness of adenosine 5'-(γ-4-aminophenyl)triphosphate as an affinity ligand for protein kinases, the inhibition constants (Ki) of the derivative were determined for four different protein kinases, namely, p42^mapk, cyclic-A kinase, MAPKK and p60^c-arc (Table 1). […] This also facilitated comparisons for the relative binding constants determined with other ATP analogs (Flockhart et al. (1984) Eur. J. Biochem., 140:289-295; Hoppe et al. (1972) Eur. J. Biochem., 80:369-372; Taylor et al. (1990) Peptides and Protein Phosphorylation (Kemp et al.) pp 2-32, CRC Press).

B1: p42^mapk (Mus musculus) (protein)
chain: MAAAAAAGPEMVRGQVFDVGPRYTNLSYIGEGAYGMVCSAYDNLNKVRVAIKKISPFEHQTYCQRTLREIKILLRFRHENIIGINDIIRAPTIEQMKDVYIVQDLMETDLYKLLKTQHLSNDHICYFLYQILRGLKYIHSANVLHRDLKPSNLLLNTTCDLKICDFGLARVADPDHDHTGFLTEYVATRWYRAPEIMLNSKGYTKSIDIWSVGCILAEMLSNRPIFPGKHYLDQLNHILGILGSPSQEDLNCIINLKARNYLLSLPHKNKVPWNRLFPNADSKALDLLDKMLTFNPHKRIEVEQALAHPYLEQYYDPSDEPIAEAPFKFDMELDDLPKEKLKELIFEETARFQPGYRS
notes: made in house
  Km: 7.5 ± 0.71 µM
